± gives the uncertainty stated by the source.
Test: protein stability index of a GFP-peptide fusion (yeast GPS) (PSI 1-4); higher = more stable; sorted into four equal gates, so the index is relative within each strain
Outline: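 Each library plasmid carries Cherry plus GFP with a tiled 17-residue yeast protein peptide fused downstream, and the pooled library was carried in yeast. Mid-log cultures in leucine-free medium were sorted into four equal gates by GFP/Cherry ratio. Reads from Illumina sequencing of PCR-amplified plasmids from each gate were assigned to strains by barcodes. Per peptide, the protein stability index was computed as the summed products of gate read frequency and gate number.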

## DFNQAKHEEIDTKNLYV [RPS10A]
doa10∆
  protein stability index: 3.38 ± 0.16
pdr5∆
  protein stability index: 2.81 ± 0.12
san1∆
  protein stability index: 3.29 ± 0.078
ubr1∆
  protein stability index: 3.07 ± 0.074

## HETTFMTAMRLMLKKLK [YML031W/NDC1]
doa10∆
  protein stability index: 1.21 ± 0.097
pdr5∆
  protein stability index: 2.56 ± 0.094
san1∆
  protein stability index: 2.42 ± 0.1
ubr1∆
  protein stability index: 2.5 ± 0.069

## HWSVSFQAHEITSFLLS [NAS6]
doa10∆
  protein stability index: 2.28 ± 0.056
pdr5∆
  protein stability index: 1.92 ± 0.051
san1∆
  protein stability index: 1.76 ± 0.08
ubr1∆
  protein stability index: 2.02 ± 0.04

## IDNLESYAGISTDKLVQ [SIR2]
doa10∆
  protein stability index: 2.9 ± 0.057
pdr5∆
  protein stability index: 2.93 ± 0.09
san1∆
  protein stability index: 2.94 ± 0.068
ubr1∆
  protein stability index: 3.08 ± 0.044

## AVHNGDRKHVAALRTVK [RPL9B]
doa10∆
  protein stability index: 2.09 ± 0.064
pdr5∆
  protein stability index: 2.23 ± 0.076
san1∆
  protein stability index: 2.36 ± 0.061
ubr1∆
  protein stability index: 2.71 ± 0.049

## NFSGLNGGITNTATNAL [YOR098C/NUP1]
doa10∆
  protein stability index: 3.15 ± 0.12
pdr5∆
  protein stability index: 2.91 ± 0.13
san1∆
  protein stability index: 2.84 ± 0.084
ubr1∆
  protein stability index: 3.34 ± 0.11

## NRRLVYSRILKSMGRKC [YCG1]
doa10∆
  protein stability index: 1.41 ± 0.12
pdr5∆
  protein stability index: 1.17 ± 0.084
san1∆
  protein stability index: 1.3 ± 0.2
ubr1∆
  protein stability index: 1.14 ± 0.067

## DSLNQLEIRNKICSSEM [RGR1]
doa10∆
  protein stability index: 2.24 ± 0.22
pdr5∆
  protein stability index: 3.11 ± 0.11
san1∆
  protein stability index: 2.65 ± 0.14
ubr1∆
  protein stability index: 2.61 ± 0.22

## DDVLQTIITDCAFLLTK [YJL039C/NUP192]
doa10∆
  protein stability index: 1.76 ± 0.057
pdr5∆
  protein stability index: 2.08 ± 0.062
san1∆
  protein stability index: 1.79 ± 0.098
ubr1∆
  protein stability index: 2.34 ± 0.047

## KELFEKTFDYVSDHLDA [SMC1]
doa10∆
  protein stability index: 3.35 ± 0.085
pdr5∆
  protein stability index: 2.87 ± 0.068
san1∆
  protein stability index: 2.9 ± 0.077
ubr1∆
  protein stability index: 3 ± 0.049

## VDSTFQKVSENFEAVFE [SMC3]
doa10∆
  protein stability index: 3.32 ± 0.088
pdr5∆
  protein stability index: 3.38 ± 0.081
san1∆
  protein stability index: 3.42 ± 0.063
ubr1∆
  protein stability index: 3.09 ± 0.048

## SISSVVSEDLLDERGHE [RPN4]
doa10∆
  protein stability index: 3.11 ± 0.1
pdr5∆
  protein stability index: 2.99 ± 0.096
san1∆
  protein stability index: 2.85 ± 0.056
ubr1∆
  protein stability index: 2.79 ± 0.057

## NRSWDHAYNITFNNQDK [RPO31]
doa10∆
  protein stability index: 2.75 ± 0.073
pdr5∆
  protein stability index: 2.82 ± 0.061
san1∆
  protein stability index: 2.7 ± 0.071
ubr1∆
  protein stability index: 2.97 ± 0.042

## DAIYRELTKNPNSNVEL [SMC1]
doa10∆
  protein stability index: 3.31 ± 0.3
pdr5∆
  protein stability index: 2.91 ± 0.15
san1∆
  protein stability index: 3.33 ± 0.088
ubr1∆
  protein stability index: 3.38 ± 0.13

## TAGVGSTPNFGGNSNKS [SIN4]
doa10∆
  protein stability index: 3.73 ± 0.2
pdr5∆
  protein stability index: 3.31 ± 0.21
san1∆
  protein stability index: 3.39 ± 0.078
ubr1∆
  protein stability index: 3.36 ± 0.061

## TDDQGRVIDDNNRRRSR [SIR3]
doa10∆
  protein stability index: 3.66 ± 0.12
pdr5∆
  protein stability index: 3.05 ± 0.24
san1∆
  protein stability index: 3.39 ± 0.17

## VDKGAIMKNKDFILSLL [YJL039C/NUP192]
doa10∆
  protein stability index: 2 ± 0.17
pdr5∆
  protein stability index: 1.81 ± 0.096
san1∆
  protein stability index: 1.95 ± 0.11
ubr1∆
  protein stability index: 1.96 ± 0.069

## RIGRIEDVTPVPSDSTR [RPS14A]
doa10∆
  protein stability index: 2.85 ± 0.082
pdr5∆
  protein stability index: 3.15 ± 0.065
san1∆
  protein stability index: 3.26 ± 0.053
ubr1∆
  protein stability index: 3.16 ± 0.052

## EHDLLRQIRPIMERIKS [ITC1]
doa10∆
  protein stability index: 1.37 ± 0.28
pdr5∆
  protein stability index: 2.3 ± 0.27

## RRNRYKTYYGIHCLAVR [RPN7]
doa10∆
  protein stability index: 1.23 ± 0.05
pdr5∆
  protein stability index: 1.38 ± 0.073
san1∆
  protein stability index: 1.29 ± 0.13
ubr1∆
  protein stability index: 1.17 ± 0.044

## LTKLNEDDLVGVVQMVT [TAF14]
doa10∆
  protein stability index: 2.89 ± 0.086
pdr5∆
  protein stability index: 3.18 ± 0.074
san1∆
  protein stability index: 3.02 ± 0.065
ubr1∆
  protein stability index: 2.98 ± 0.063

## GYDPIVSTRAIDLLWKG [PRP28]
doa10∆
  protein stability index: 2.12 ± 0.18
pdr5∆
  protein stability index: 2.03 ± 0.091
san1∆
  protein stability index: 1.47 ± 0.11
ubr1∆
  protein stability index: 2.6 ± 0.079

## ELIIDKVTCSSNSSSSP [MED1]
doa10∆
  protein stability index: 2.72 ± 0.058
pdr5∆
  protein stability index: 2.75 ± 0.065
san1∆
  protein stability index: 2.79 ± 0.054
ubr1∆
  protein stability index: 2.72 ± 0.048

## KKASDLVDTPSNNTAAT [NUT1]
doa10∆
  protein stability index: 3.28 ± 0.1
pdr5∆
  protein stability index: 3.17 ± 0.074
san1∆
  protein stability index: 3.11 ± 0.046
ubr1∆
  protein stability index: 3.21 ± 0.06

## TRGRSATIRETYEIICD [RRP43]
doa10∆
  protein stability index: 2.59 ± 0.049
pdr5∆
  protein stability index: 2.68 ± 0.05
san1∆
  protein stability index: 2.57 ± 0.058
ubr1∆
  protein stability index: 2.62 ± 0.035

## STSIQYHGISKNDNIKK [POP6]
doa10∆
  protein stability index: 2.79 ± 0.068
pdr5∆
  protein stability index: 2.9 ± 0.055
san1∆
  protein stability index: 2.89 ± 0.043
ubr1∆
  protein stability index: 2.92 ± 0.05

From the supplement of paper PMC9732359
